± gives the uncertainty stated by the source.
B1: RUN and FYVE domain-containing protein 1, residues 639 to 698; numbered along this chain, Q96T51 (parent)
chain: WLKDDEATHCRQCEKEFSISRRKHHCRNCGHIFCNTCSSNELALPSYPKPVRVCDSCHTL

Variants of: B1
Test: abundance fitness (aPCA) (normalised: wild type 0, dead -1); higher = more abundant; growth selection in yeast, the domain comes from the species named
Settings: Homo sapiens

Variant	abundance fitness
E41I	-0.335 ± 0.064
E41R	-0.151 ± 0.042
E41L	-0.18 ± 0.034
E41Y	-0.126 ± 0.072
E41A	-0.182 ± 0.04
L60T	-0.087 ± 0.066
L60W	-0.366 ± 0.064
L60E	0.031 ± 0.13
L60Q	0.101 ± 0.086
L60C	-0.625 ± 0.088
L60S	-0.067 ± 0.044
L60G	0.229 ± 0.11
R22A	-0.102 ± 0.045
R22N	-0.24 ± 0.1
R22M	0.109 ± 0.047
R22P	-0.303 ± 0.054
R22Y	-0.356 ± 0.077
R22D	-0.141 ± 0.08
E16A	-0.286 ± 0.04
E16V	-0.282 ± 0.048
E16G	-0.18 ± 0.036
E16R	-0.412 ± 0.043
E16T	-0.339 ± 0.062
E16Y	-0.349 ± 0.071

Variant	abundance fitness
E16C	-0.29 ± 0.043
E16W	-0.638 ± 0.064
E6I	0.029 ± 0.059
E6G	0.001 ± 0.043
E6F	-0.295 ± 0.066
E6K	0.126 ± 0.053
E6Y	-0.191 ± 0.075
E6L	-0.425 ± 0.044
S46R	0.19 ± 0.045
S46E	0.402 ± 0.084
S46C	-0.133 ± 0.086
S46N	0.252 ± 0.075
S46Q	0.009 ± 0.2
S46D	0.365 ± 0.092
S46K	0.181 ± 0.058
C10A	-0.765 ± 0.068
C10H	-0.665 ± 0.27
C10V	-0.815 ± 0.059
C10M	-1.02 ± 0.16
L44D	0.138 ± 0.068
L44E	-0.376 ± 0.089
L44Y	-0.271 ± 0.062
L44W	-0.375 ± 0.05
L44N	-0.388 ± 0.093

Variant	abundance fitness
L44K	-0.384 ± 0.071
L44G	-0.166 ± 0.053
H24R	-0.378 ± 0.045
H24S	-0.284 ± 0.039
H24Q	-0.293 ± 0.062
H24T	-0.146 ± 0.051
H24L	-0.458 ± 0.046
L2W	-0.329 ± 0.066
L2C	-0.327 ± 0.069
L2R	-0.393 ± 0.07
L2H	-0.211 ± 0.095
Y47R	-0.345 ± 0.042
Y47V	-0.026 ± 0.039
Y47D	0 ± 0.092
Y47W	-0.382 ± 0.053
Y47H	0.09 ± 0.068
Y47L	-0.069 ± 0.044
Y47F	-0.05 ± 0.075
V51Y	-0.562 ± 0.12
V51F	-0.571 ± 0.075
V51D	-0.879 ± 0.15
V51I	-0.249 ± 0.073
V51E	-0.301 ± 0.095
V51G	-0.55 ± 0.058

Variant	abundance fitness
V51M	-0.244 ± 0.091
V51H	-0.945 ± 0.18
V51S	-0.345 ± 0.062
V51P	-0.403 ± 0.14
A43W	-0.405 ± 0.055
A43T	-0.045 ± 0.058
A43S	-0.188 ± 0.043
A43V	0.008 ± 0.038
A43L	0.058 ± 0.037
A43G	-0.124 ± 0.039
A43I	0.019 ± 0.063
A43R	-0.054 ± 0.036
F17T	-0.574 ± 0.063
F17Y	-0.769 ± 0.12
F17W	-0.381 ± 0.04
F17R	-0.677 ± 0.042
F17L	-0.218 ± 0.034
F17E	-0.68 ± 0.065
F17Q	-0.765 ± 0.084
F33I	-0.171 ± 0.06
F33S	-0.47 ± 0.053
F33T	-0.238 ± 0.053
F33D	-0.573 ± 0.14
F33Y	0.005 ± 0.11

Variant	abundance fitness
F33H	-0.458 ± 0.16
F33M	-0.378 ± 0.051
F33K	-0.602 ± 0.069
C34F	-0.853 ± 0.082
C34H	-0.44 ± 0.08
C34D	-0.577 ± 0.075
C34N	-0.709 ± 0.11
C34S	-0.758 ± 0.053
C34T	-0.612 ± 0.057
C34K	-0.493 ± 0.14
H9P	-0.822 ± 0.079
H9F	-0.135 ± 0.049
H9Y	-0.357 ± 0.06
H9N	-0.046 ± 0.062
C37F	-0.649 ± 0.13
C37A	-0.326 ± 0.069
C37N	-0.282 ± 0.26
C37M	-0.567 ± 0.064
P45H	-0.022 ± 0.063
P45R	0.009 ± 0.034
P45D	-0.035 ± 0.36
P45T	0.047 ± 0.049
P45I	-0.162 ± 0.061
P45E	-0.081 ± 0.074

Variant	abundance fitness
P45L	-0.19 ± 0.042
W1D	0.445 ± 0.13
W1F	-0.106 ± 0.14
H25W	0.128 ± 0.053
H25F	-0.045 ± 0.091
H25I	-0.13 ± 0.1
H25T	-0.118 ± 0.055
H25Q	0.169 ± 0.046
H25P	-0.065 ± 0.043
S38M	-0.425 ± 0.11
S38C	-0.029 ± 0.055
S38Q	-0.432 ± 0.13
S38F	-0.594 ± 0.07
S38A	0.124 ± 0.077
S38Y	-0.633 ± 0.065
S38K	-0.589 ± 0.1
N35A	0.341 ± 0.037
N35L	0.215 ± 0.034
H58K	-0.091 ± 0.06
H58L	-0.114 ± 0.038
H58D	-0.495 ± 0.08
H58V	0.037 ± 0.054
H58E	-0.062 ± 0.052
H58S	-0.179 ± 0.044

Variant	abundance fitness
H58A	-0.1 ± 0.043
T59S	0.052 ± 0.041
T59M	0.019 ± 0.049
T59Q	0.328 ± 0.076
T59Y	-0.183 ± 0.06
T36N	0.276 ± 0.072
T36S	0.214 ± 0.038
T36A	0.349 ± 0.041
T36L	0.3 ± 0.033
T36K	0.254 ± 0.076
T36G	0.444 ± 0.032
T36Y	0.177 ± 0.043
R27A	0.189 ± 0.048
R27I	-0.077 ± 0.052
R27D	0.072 ± 0.082
R27Q	0.112 ± 0.054
R27L	0.069 ± 0.034
R27H	0.316 ± 0.053
D4E	-0.156 ± 0.059
D4T	-0.27 ± 0.05
D4G	-0.228 ± 0.056
D4I	-0.241 ± 0.058
D55T	-0.602 ± 0.37
